Measurements reported in US20040029228A1.

Key:
Test in all cases: cell-based or functional assay
[1] = biological target: human CRF2-4 (IL10Rb) (human)
[2] = biological target: T1, human zcytor19 (Zyctor19) cytokine receptor (human)
T1 sequence (Q8IU57 1-520, looked up): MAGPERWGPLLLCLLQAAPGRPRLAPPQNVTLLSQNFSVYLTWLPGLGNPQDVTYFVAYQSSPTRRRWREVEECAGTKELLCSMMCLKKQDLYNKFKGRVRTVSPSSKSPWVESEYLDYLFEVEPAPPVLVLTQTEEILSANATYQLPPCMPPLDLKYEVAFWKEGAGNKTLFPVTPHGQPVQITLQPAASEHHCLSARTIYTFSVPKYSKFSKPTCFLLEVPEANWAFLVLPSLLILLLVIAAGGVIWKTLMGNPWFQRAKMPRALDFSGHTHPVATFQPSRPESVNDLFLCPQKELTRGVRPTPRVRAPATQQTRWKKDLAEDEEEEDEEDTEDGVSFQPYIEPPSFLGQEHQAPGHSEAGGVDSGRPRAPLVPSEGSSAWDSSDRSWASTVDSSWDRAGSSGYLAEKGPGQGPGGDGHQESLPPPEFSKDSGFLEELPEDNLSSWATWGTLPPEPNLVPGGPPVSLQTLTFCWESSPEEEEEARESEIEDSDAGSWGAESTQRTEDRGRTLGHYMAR

[3] = biological target: zcytoR19 and IL10Rb (CRF2-4) co-expressed on cells (heterodimeric receptor) (human)

Sequence of human CRF2-4 (IL10Rb) (human) (Q08334 whole entry): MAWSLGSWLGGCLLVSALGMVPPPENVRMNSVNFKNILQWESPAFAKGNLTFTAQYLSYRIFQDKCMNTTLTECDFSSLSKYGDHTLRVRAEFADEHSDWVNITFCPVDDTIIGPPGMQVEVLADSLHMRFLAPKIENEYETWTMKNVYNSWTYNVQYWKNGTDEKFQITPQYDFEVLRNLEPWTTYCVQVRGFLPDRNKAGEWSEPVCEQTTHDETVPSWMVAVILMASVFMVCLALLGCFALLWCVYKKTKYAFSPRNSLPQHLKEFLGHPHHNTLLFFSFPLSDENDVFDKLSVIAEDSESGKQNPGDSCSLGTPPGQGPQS

B1: zcyto22 (ligand)
chain: MTGDCMPVLVLMAAVLTVTGAVPVARLRGALPDARGCHIAQFKSLSPQELQAFKRAKDALEESLLLKDCKCRSRLFPRTWDLRQLQVRERPVALEAELALTLKVLEATADTDPALGDVLDQPLHTLHHILSQLRACVSRQGPGTQIQPQPTAGPRTRGRLHHWLHRLQEAPKKESPGCLEASVTFNLFRLLTRDLNCVASGDLCV
Question: How did the ISRE-luciferase fold induction, wild-type 293 cells, Zcyto22 0.01 ng/ml (fold induction) [1] turn out when B1 was run?
Answer: 0.9

Question: What about the ISRE-luciferase fold induction, wild-type 293 cells, Zcyto22 0.01 ng/ml + IL10Rb neutralizing Antibody (fold induction) [1] of the same binder?
Answer: 0.9

Question: And the ISRE-luciferase fold induction, wild-type 293 cells, Zcyto22 0.1 ng/ml (fold induction) [1]?
Answer: 1.2

Question: And the ISRE-luciferase fold induction, wild-type 293 cells, Zcyto22 0.1 ng/ml + IL10Rb neutralizing Antibody (fold induction) [1]?
Answer: 0.8

Question: And the ISRE-luciferase fold induction, wild-type 293 cells, Zcyto22 1 ng/ml (fold induction) [1]?
Answer: 1.8

Question: What about the ISRE-luciferase fold induction, wild-type 293 cells, Zcyto22 1 ng/ml + IL10Rb neutralizing Antibody (fold induction) [1] of the same binder?
Answer: 0.8

Question: And the ISRE-luciferase fold induction, wild-type 293 cells, Zcyto22 10 ng/ml (fold induction) [1]?
Answer: 8

Question: What about the ISRE-luciferase fold induction, wild-type 293 cells, Zcyto22 10 ng/ml + IL10Rb neutralizing Antibody (fold induction) [1] of the same binder?
Answer: 1

Question: What about the ISRE-luciferase fold induction, wild-type 293 cells, Zcyto22 100 ng/ml (fold induction) [1] of the same binder?
Answer: 11

Question: And the ISRE-luciferase fold induction, wild-type 293 cells, Zcyto22 100 ng/ml + IL10Rb neutralizing Antibody (fold induction) [1]?
Answer: 1.2

Question: What about the ISRE-luciferase fold induction, 293 cells transfected with ISRE-Luc./Zcytor19, Zcyto22 125 ng/ml (fold induction) [2] of the same binder?
Answer: 104

Question: What about the ISRE-luciferase fold induction, BHK cells transfected with zcytoR19 alone, zcyto22 0.001 ng/ml (fold induction) [2] of the same binder?
Answer: 1.2

Question: And the ISRE-luciferase fold induction, BHK cells transfected with zcytoR19 alone, zcyto22 0.01 ng/ml (fold induction) [2]?
Answer: 1.2

Question: What about the ISRE-luciferase fold induction, BHK cells transfected with zcytoR19 alone, zcyto22 0.1 ng/ml (fold induction) [2] of the same binder?
Answer: 1.1

Question: And the ISRE-luciferase fold induction, BHK cells transfected with zcytoR19 alone, zcyto22 1 ng/ml (fold induction) [2]?
Answer: 1.5

Question: And the ISRE-luciferase fold induction, BHK cells transfected with zcytoR19 alone, zcyto22 10 ng/ml (fold induction) [2]?
Answer: 1.9

Question: And the ISRE-luciferase fold induction, BHK cells transfected with zcytoR19 alone, zcyto22 100 ng/ml (fold induction) [2]?
Answer: 2

Question: And the ISRE-luciferase fold induction, BHK cells transfected with zcytoR19 alone, zcyto22 1000 ng/ml (fold induction) [2]?
Answer: 1.8

Question: What about the ISRE-luciferase fold induction, BHK cells transfected with zcytoR19 and IL10Rb (CRF2-4), zcyto22 0.001 ng/ml (fold induction) [3] of the same binder?
Answer: 1.3

Question: And the ISRE-luciferase fold induction, BHK cells transfected with zcytoR19 and IL10Rb (CRF2-4), zcyto22 0.01 ng/ml (fold induction) [3]?
Answer: 1.7

Question: What about the ISRE-luciferase fold induction, BHK cells transfected with zcytoR19 and IL10Rb (CRF2-4), zcyto22 0.1 ng/ml (fold induction) [3] of the same binder?
Answer: 2.4

Question: And the ISRE-luciferase fold induction, BHK cells transfected with zcytoR19 and IL10Rb (CRF2-4), zcyto22 1 ng/ml (fold induction) [3]?
Answer: 2.7

Question: What about the ISRE-luciferase fold induction, BHK cells transfected with zcytoR19 and IL10Rb (CRF2-4), zcyto22 10 ng/ml (fold induction) [3] of the same binder?
Answer: 2.7

Question: And the ISRE-luciferase fold induction, BHK cells transfected with zcytoR19 and IL10Rb (CRF2-4), zcyto22 100 ng/ml (fold induction) [3]?
Answer: 2.2

Question: What about the ISRE-luciferase fold induction, BHK cells transfected with zcytoR19 and IL10Rb (CRF2-4), zcyto22 1000 ng/ml (fold induction) [3] of the same binder?
Answer: 2.2
